From paper PMC5932250 (Journal of the American Chemical Society, 2018)

What was measured:
[1] = biological target: FITC-SgbA(leader) (Streptomyces globisporus subsp. globisporus NRRL B2293); assay: fluorescence polarisation
[2] = system: protein tyrosine phosphatase 1B (PTP1B); details: at 50 μM; ref [48]; cited from earlier work

Row | Kd [1] [nM] | Substance | inhibition of PTP1B [2] [%]
1 | 357 | His6-SgbL(kinase 208-548) (domain or fragment) | –
2 | 351 | His6-SgbL(lyase-kinase 1-548) (domain or fragment) | –
3 | – | streptocollin | 33
